B1: SMG5 (parent)
chain: FVSIAQSEQESLLQQAQAQFRMAQ

Variants of: B1
Assay: protein stability index of a GFP-peptide fusion (GPS, HEK-293T) (PSI 1-6); higher = more stable
Conditions: c terminus: a fixed tail appended
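Note: lentivirally expressed fusions sorted by FACS into six bins by GFP to DsRed ratio, PSI derived from sequencing read proportions per bin multiplied by bin number.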

Row | Variant | protein stability index
1 | FVSIAQSEQESPLQQAQAQFRMAQ | 2.48
2 | FVSIAQSEQESQLQQAQAQFRMAQ | 2.66
3 | FVSIAQSEQESRLQQAQAQFRMAQ | 2.4
4 | FVSIAQSEQESSLQQAQAQFRMAQ | 2.21
5 | FVSIAQSEQESTLQQAQAQFRMAQ | 2.54
6 | FVSIAQSEQESVLQQAQAQFRMAQ | 2.31
7 | FVSIAQSEQESWLQQAQAQFRMAQ | 1.75
8 | FVSIAQSEQESYLQQAQAQFRMAQ | 1.61
9 | FVSIAQSEQESLAQQAQAQFRMAQ | 2.14
10 | FVSIAQSEQESLCQQAQAQFRMAQ | 2.88
11 | FVSIAQSEQESLDQQAQAQFRMAQ | 3
12 | FVSIAQSEQESLEQQAQAQFRMAQ | 2.13
13 | FVSIAQSEQESLFQQAQAQFRMAQ | 1.5
14 | FVSIAQSEQESLHQQAQAQFRMAQ | 3.08
15 | FVSIAQSEQESLIQQAQAQFRMAQ | 2.87
16 | FVSIAQSEQESLKQQAQAQFRMAQ | 2.52
17 | FVSIAQSEQESLMQQAQAQFRMAQ | 2.66
18 | FVSIAQSEQESLNQQAQAQFRMAQ | 2.74
19 | FVSIAQSEQESLPQQAQAQFRMAQ | 3.08
20 | FVSIAQSEQESLQQQAQAQFRMAQ | 2.6
21 | FVSIAQSEQESLRQQAQAQFRMAQ | 2.07
22 | FVSIAQSEQESLSQQAQAQFRMAQ | 2.74
23 | FVSIAQSEQESLTQQAQAQFRMAQ | 2.28
24 | FVSIAQSEQESLVQQAQAQFRMAQ | 2.68

Row | Variant | protein stability index
25 | FVSIAQSEQESLWQQAQAQFRMAQ | 2.19
26 | FVSIAQSEQESLYQQAQAQFRMAQ | 1.31
27 | FVSIAQSEQESLLAQAQAQFRMAQ | 2.11
28 | FVSIAQSEQESLLCQAQAQFRMAQ | 1.79
29 | FVSIAQSEQESLLDQAQAQFRMAQ | 2.4
30 | FVSIAQSEQESLLEQAQAQFRMAQ | 2.88
31 | FVSIAQSEQESLLFQAQAQFRMAQ | 1.84
32 | FVSIAQSEQESLLGQAQAQFRMAQ | 2.77
33 | FVSIAQSEQESLLHQAQAQFRMAQ | 2.4
34 | FVSIAQSEQESLLIQAQAQFRMAQ | 2.25
35 | FVSIAQSEQESLLKQAQAQFRMAQ | 2.79
36 | FVSIAQSEQESLLLQAQAQFRMAQ | 2.4
37 | FVSIAQSEQESLLMQAQAQFRMAQ | 2.18
38 | FVSIAQSEQESLLNQAQAQFRMAQ | 2.59
39 | FVSIAQSEQESLLPQAQAQFRMAQ | 2.17
40 | FVSIAQSEQESLLRQAQAQFRMAQ | 2.21
41 | FVSIAQSEQESLLSQAQAQFRMAQ | 2.54
42 | FVSIAQSEQESLLTQAQAQFRMAQ | 2.09
43 | FVSIAQSEQESLLVQAQAQFRMAQ | 1.64
44 | FVSIAQSEQESLLWQAQAQFRMAQ | 2.52
45 | FVSIAQSEQESLLYQAQAQFRMAQ | 1.7
46 | FVSIAQSEQESLLQAAQAQFRMAQ | 1.44
47 | FVSIAQSEQESLLQCAQAQFRMAQ | 1.85
48 | FVSIAQSEQESLLQDAQAQFRMAQ | 2.55

Row | Variant | protein stability index
49 | FVSIAQSEQESLLQEAQAQFRMAQ | 2.32
50 | FVSIAQSEQESLLQFAQAQFRMAQ | 1.4
51 | FVSIAQSEQESLLQGAQAQFRMAQ | 2.55
52 | FVSIAQSEQESLLQHAQAQFRMAQ | 2.24
53 | FVSIAQSEQESLLQIAQAQFRMAQ | 2.21
54 | FVSIAQSEQESLLQKAQAQFRMAQ | 2.22
55 | FVSIAQSEQESLLQLAQAQFRMAQ | 1.61
56 | FVSIAQSEQESLLQMAQAQFRMAQ | 2.12
57 | FVSIAQSEQESLLQNAQAQFRMAQ | 2.5
58 | FVSIAQSEQESLLQPAQAQFRMAQ | 2.28
59 | FVSIAQSEQESLLQRAQAQFRMAQ | 2.44
60 | FVSIAQSEQESLLQSAQAQFRMAQ | 2.27
61 | FVSIAQSEQESLLQTAQAQFRMAQ | 1.59
62 | FVSIAQSEQESLLQVAQAQFRMAQ | 2.34
63 | FVSIAQSEQESLLQWAQAQFRMAQ | 2.55
64 | FVSIAQSEQESLLQYAQAQFRMAQ | 2.17
65 | FVSIAQSEQESLLQQCQAQFRMAQ | 1.36
66 | FVSIAQSEQESLLQQDQAQFRMAQ | 2.44
67 | FVSIAQSEQESLLQQEQAQFRMAQ | 2.43
68 | FVSIAQSEQESLLQQFQAQFRMAQ | 2.47
69 | FVSIAQSEQESLLQQGQAQFRMAQ | 2.09
70 | FVSIAQSEQESLLQQHQAQFRMAQ | 2.56
71 | FVSIAQSEQESLLQQIQAQFRMAQ | 2.16
72 | FVSIAQSEQESLLQQKQAQFRMAQ | 1.68

Row | Variant | protein stability index
73 | FVSIAQSEQESLLQQLQAQFRMAQ | 1.73
74 | FVSIAQSEQESLLQQMQAQFRMAQ | 2.2
75 | FVSIAQSEQESLLQQNQAQFRMAQ | 2.37
76 | FVSIAQSEQESLLQQPQAQFRMAQ | 1.88
77 | FVSIAQSEQESLLQQQQAQFRMAQ | 2.55
78 | FVSIAQSEQESLLQQRQAQFRMAQ | 2.53
79 | FVSIAQSEQESLLQQSQAQFRMAQ | 1.94
80 | FVSIAQSEQESLLQQTQAQFRMAQ | 2.69
81 | FVSIAQSEQESLLQQVQAQFRMAQ | 1.78
82 | FVSIAQSEQESLLQQWQAQFRMAQ | 1.94
83 | FVSIAQSEQESLLQQYQAQFRMAQ | 1.86
84 | FVSIAQSEQESLLQQAAAQFRMAQ | 1.95
85 | FVSIAQSEQESLLQQACAQFRMAQ | 1.76
86 | FVSIAQSEQESLLQQADAQFRMAQ | 2.37
87 | FVSIAQSEQESLLQQAEAQFRMAQ | 2.22
88 | FVSIAQSEQESLLQQAFAQFRMAQ | 1.85
89 | FVSIAQSEQESLLQQAGAQFRMAQ | 2.17
90 | FVSIAQSEQESLLQQAHAQFRMAQ | 1.91
91 | FVSIAQSEQESLLQQAIAQFRMAQ | 2.02
92 | FVSIAQSEQESLLQQAKAQFRMAQ | 2.33
93 | FVSIAQSEQESLLQQALAQFRMAQ | 2.04
94 | FVSIAQSEQESLLQQAMAQFRMAQ | 2.13

— the supplement of paper PMC10567573
